We go through 72 sequences from the supplement of paper PMC10567573.

± gives the standard deviation.

This data set can be described thus: protein stability index of a GFP-peptide fusion (GPS, HEK-293T) (PSI 1-6); higher = more stable.
Setting [1] is: treatment: DMSO, c terminus: a fixed tail appended.
The mark [2] stands for this setting: treatment: MLN4924 1 uM, 8 h, c terminus: a fixed tail appended.
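Further: 24-mer peptide tiles fused after GFP, lentivirally expressed, FACS-sorted into six equal bins by GFP/DsRed ratio, decoded by Illumina sequencing, PSI is the read-weighted mean bin number.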

In the case of NFFNQVLMLGKTSISDLSEHVFDL [PDS5B], the protein stability index worked out at 2.56 ± 0.54 under setting [1] and 2.63 ± 0.32 under setting [2].
Taken in the same sequence, the figures for NFSQPVAGRPSLLRHDEVRTYFHE [NLN] were 3.36 ± 0.61 and 3.33 ± 0.31.
For NGISPIIIDNTNLHAWEMKPYAVM [N4BP2L1], in that order: 2.46 ± 0.37 and 2.01 ± 0.25.
For NGTGDSNDFWRIEVVNRKFGNRIK [POMT2], in that order: 3.25 ± 0.26 and 3.46 ± 0.41.
As to NHEEDAGVRCNTPAMGLQKKLRLN [LOXL2], the protein stability index was determined as 4.64 ± 0.12 under setting [1] and 4.5 ± 0.36 under setting [2].
Regarding NISDADVHNAMDNYECNLYTFLYL [FEM1B], the protein stability index is, setting by setting: under setting [1], 2.25 ± 0.66; under setting [2], 2.42 ± 0.45.
For NKHLFYAEDFSTMDEISEKLKKGI [MATN2], in that order: 3.79 ± 0.36 and 3.76 ± 0.39.
For NKTQQVIHIIDFGLAKEYIDPETK [CSNK1G3], in that order: 2.48 ± 0.52 and 2.47 ± 0.41.
Taken in the same sequence, the figures for NLITTVTPEKKAEEERDEEEDKRR [EPB41L3] were 5.61 ± 0.35 and 5.56 ± 0.2.
Take NLSLVCLPRSEDDDCDDDDDDAQI [DRICH1]: the protein stability index runs as follows: under setting [1], 5.42 ± 0.28; under setting [2], 5.5 ± 0.26.
For NNFREYNLHRVAAHELGHSLGLSH [MMP1], in that order: 2.85 ± 0.22 and 3.01 ± 0.13.
Taken in the same sequence, the figures for NNQITCRNGQWSEPPKCLDPCVIS [CFHR2] were 3.34 ± 0.2 and 3.32 ± 0.25.
On to NQHCLDTAFNFFKMAVSRHLTRGR [BRF1], for which the protein stability index came out at 2.19 ± 0.12 under setting [1] and 2.25 ± 0.22 under setting [2].
NQHDTEMKYYIVHLKRHFMFRNHL [DYRK1B] had a protein stability index under setting [1] of 2.45 ± 0.23 and a protein stability index under setting [2] of 2.3 ± 0.15.
Taken in the same sequence, the figures for NSEVYLPNINKISMQAVLDYLYTK [RHOBTB1] were 2.17 ± 0.29 and 2.35 ± 0.16.
Taken in the same sequence, the figures for NSHFSLNVKTLKDGKPFPELVLEQ [PCDHGC5] were 3.42 ± 0.18 and 3.76 ± 0.27.
Turning to NSLAALDLSGIQTSDAAFLTQWKD [ZER1], the protein stability index reads like this: under setting [1], 4.25 ± 0.2; under setting [2], 4.29 ± 0.23.
With NSRFQMLFTSFQEPPCEGNTFFCH [NETO1], the protein stability index worked out at 2.23 ± 0.45 under setting [1] and 2.23 ± 0.11 under setting [2].
Taken in the same sequence, the figures for NSSGDFSQAHSTLKLANHQRPVSR [TRAF3IP2] were 4.43 ± 0.32 and 4.63 ± 0.38.
Turning to NTEEQLEIALAPYQHLEEDMKSLK [MTUS2], the protein stability index was 4.78 ± 0.17 under setting [1] and 4.8 ± 0.28 under setting [2].
For NTRVRELAQAAGFAPQTGARPSET [DNAAF3], in that order: 4.71 ± 0.11 and 4.79 ± 0.25.
As to NVDDPTGAHSNAPITAHAEVEVVE [CSNK1G1], the protein stability index is 5.35 ± 0.61 under setting [1] and 5.39 ± 0.47 under setting [2].
Taken in the same sequence, the figures for PAAAPEGDWARLLEQMGALAVRGS [ZBED3] were 3.62 ± 0.3 and 3.59 ± 0.37.
Take PAEGEGRLGRCMRRLRDMVERPHS [KCNG1]: the protein stability index was found to be 4.17 ± 0.14 under setting [1] and 4.11 ± 0.35 under setting [2].
Sequence PAGFRVSTLGTLQPPPAPPKKIMP [PPFIA4] showed a protein stability index under setting [1] of 4.14 ± 0.42 and a protein stability index under setting [2] of 4.07 ± 0.43.
Regarding PAIVEAGGMQALGLHLTDPSQRLV [CTNNB1], the protein stability index runs as follows: under setting [1], 3.79 ± 0.23; under setting [2], 3.83 ± 0.15.
For PAPLCGGPSAEAYLLHPAAFHGAP [TBX6], the protein stability index is, setting by setting: under setting [1], 2.82 ± 0.34; under setting [2], 2.95 ± 0.27.
Taken in the same sequence, the figures for PARAPPEPPHNLFCAPGSWEWNEL [SERTAD3] were 3.36 ± 0.3 and 3.32 ± 0.32.
Turning to PARTVLVGSLSWLRKQLQPTHCKY, the protein stability index runs as follows: under setting [1], 2.38 ± 0.43; under setting [2], 2.19 ± 0.098.
Consider PASQAASSSSASADLLAGFGGSFM [SNAP91], for which the protein stability index by setting is: under setting [1], 3.89 ± 0.24; under setting [2], 3.73 ± 0.12.
Consider PCASLLAFASTCLLSRFSVGIFHL [TMEM175], for which the protein stability index runs as follows: under setting [1], 3.43 ± 0.076; under setting [2], 3 ± 0.3.
For PDARPHRRPHELLPVGGRLPGPTR [HAGHL], in that order: 4.6 ± 0.14 and 4.57 ± 0.3.
Regarding PDVTQLTPPSHDLTDNIFPRLVC [ANKRD17], the protein stability index was determined as 2.45 ± 0.28 (treatment: DMSO, c terminus: native) and 2.4 ± 0.25 (treatment: MLN4924 1 uM, 8 h, c terminus: native).
Turning to PEEKIWEELSVLEVFEGREDSILG [MAGEA3], the protein stability index reads like this: under setting [1], 4.6 ± 0.44; under setting [2], 4.67 ± 0.11.
For PEHRAFGSPFGLEEPQWVPDKECR [ZFYVE21], in that order: 4.57 ± 0.15 and 4.62 ± 0.28.
For PELRQLVLSLLSLEPAQRPPLSHI [NEK8], in that order: 2.56 ± 0.41 and 2.47 ± 0.46.
Turning to PEQGVPKSGEGFIDFIGQVHKTKE [PTPRD], the protein stability index came out at 4.6 ± 0.44 under setting [1] and 5.17 ± 0.5 under setting [2].
Taken in the same sequence, the figures for PFFFTGAFPFNMQELVLKVRIQNP [ANKRD40] were 2.27 ± 0.042 and 1.99 ± 0.61.
Consider PFGENAEFPADISSITEAVPSESE [NFE2L1], for which the protein stability index by setting is: under setting [1], 5.5 ± 0.28; under setting [2], 5.25 ± 0.27.
PFSSVTEEELNFEKGETMEVIEKP [NCK2]: the protein stability index under setting [1] turned out to be 5.38 ± 0.22 and the protein stability index under setting [2] came out at 5.42 ± 0.28.
Taken in the same sequence, the figures for PGAGSRRRGRMALCGQAAGAASLP [FBXO33] were 2.76 ± 0.2 and 2.97 ± 0.17.
Taken in the same sequence, the figures for PGCGSVPGSGSGPGPGSGPGSGPG [SPAG8] were 4.96 ± 0.062 and 4.99 ± 0.25.
For the sequence PGGAPRVASRNLFPKDTLMNLHVY [CLPTM1], the protein stability index by setting is: under setting [1], 2.33 ± 0.24; under setting [2], 2.29 ± 0.058.
For PGMPPPVPRPGIPPMTQAQAVSAP [ZNF207], in that order: 4.94 ± 0.15 and 4.86 ± 0.19.
For PGSILYSSSGDLADLENEDIFPEL [DLC1], in that order: 4.69 ± 0.14 and 4.77 ± 0.32.
For PLDSKENLENPMRRIHSLPQKLLG [CDC25A], in that order: 3.29 ± 0.32 and 3.79 ± 0.16.
In turn, PLTRLGQLKACTNFDDILNVCDDY [KCNG1] came in with a protein stability index under setting [1] of 3.18 ± 0.29 and a protein stability index under setting [2] of 3.34 ± 0.23.
Turning to PMMEHEMGGHHPGADYPVDGLPDL [CTNNB1], the protein stability index under setting [1] stood at 5.2 ± 0.23 and the protein stability index under setting [2] is 5.24 ± 0.13.
For PPAQGRVSRRLSPRKVSTCTDHEL [TRIM9], in that order: 5.031 ± 0.046 and 4.87 ± 0.35.
Taken in the same sequence, the figures for PPIPILELADHIERLKANDNLKFS [PTPRD] were 3.56 ± 0.19 and 3.32 ± 0.2.
Regarding PPPNRMYPPPPPALPSSAPSGPPP [WASL], the protein stability index was 5.01 ± 0.3 under setting [1] and 5.08 ± 0.13 under setting [2].
For PQALATRALPCPAHVVFRYQGVRM [FCHSD1], in that order: 2.69 ± 0.2 and 2.69 ± 0.22.
With PQEFQKTVSTMYYLWMCSTLALLL [SCAMP3], the protein stability index under setting [1] was 2.88 ± 0.47 and the protein stability index under setting [2] came out at 2.77 ± 0.67.
Taken in the same sequence, the figures for PSPTSPPPPELMDVSLVGGPADCS [DYRK1B] were 5.09 ± 0.1 and 5.14 ± 0.22.
For PSRGHAYRDYGHSRRDESYSRGYR [RBMY1A1], the protein stability index by setting is: under setting [1], 4.42 ± 0.13; under setting [2], 4.34 ± 0.26.
Take PSTASLLLCPGGLDHKLNLRGKAW [TIAF1]: the protein stability index by setting is: under setting [1], 2.69 ± 0.24; under setting [2], 2.87 ± 0.24.
Taken in the same sequence, the figures for PTARHFQEHPRQQLATSSFLLFLL [MOSPD3] were 2.2 ± 0.24 and 2.23 ± 0.4.
PTFKSFEERVETTVTSLKTKVGGT [TPD52L1]: the protein stability index was 4.64 ± 0.25 under setting [1] and 4.65 ± 0.033 under setting [2].
Take PVEYRSDVNSFVTECEPSELFQLQ [CDS1]: the protein stability index is, setting by setting: under setting [1], 4.5 ± 0.36; under setting [2], 4.55 ± 0.18.
Turning to PYPASKADIPSVAFSSRLGGSRGA [DCAF4], the protein stability index was determined as 3.71 ± 0.22 under setting [1] and 3.8 ± 0.41 under setting [2].
Turning to QADTVHSNPELDVLLLGSVDGRHL [DNAAF3], the protein stability index under setting [1] is 3.77 ± 0.4 and the protein stability index under setting [2] was 4 ± 0.3.
For QAGPSPAPPTPPEEEDLRRRLKYF [MCOLN1], in that order: 4.91 ± 0.14 and 4.99 ± 0.17.
Consider QAIVTEDKTDISSGRARQQDEEML [MLH1], for which the protein stability index by setting is: under setting [1], 5.23 ± 0.22; under setting [2], 5.38 ± 0.14.
On to QAKPEKAAVAQKPRSHFTTPAPMS [MYBL2], for which the protein stability index is, setting by setting: under setting [1], 4.44 ± 0.34; under setting [2], 4.39 ± 0.11.
For QAYKWSNKLQYHAGLASGLLNQQS [MED27], in that order: 2.46 ± 0.28 and 2.42 ± 0.096.
For QCKDALEIYKRFLTRMTRVSEFLK [SNAP91], in that order: 2.77 ± 0.9 and 2.51 ± 0.24.
Taken in the same sequence, the figures for QCRDLVDEAKKFHLRPELRSQMQG [KLHL12] were 3.38 ± 0.18 and 3.53 ± 0.13.
For QEIEDKMKGFSFKEDTLLLIAEVM [C8orf76], the protein stability index under setting [1] stood at 2.54 ± 0.68 and the protein stability index under setting [2] turned out to be 2.16 ± 0.44.
With QEILLAHRRFCELLPQEQRSVESS [CIB1], the protein stability index by setting is: under setting [1], 4.16 ± 0.15; under setting [2], 4.32 ± 0.11.
For QERQGPAKPEVLSIQWPGKRSSRR [NECAB1], the protein stability index reads like this: under setting [1], 4.88 ± 0.21; under setting [2], 4.93 ± 0.13.
For QETAEFFLSLDIPIGELYGLSESS [ACSBG2], the protein stability index amounted to 2.61 ± 0.37 under setting [1] and 2.47 ± 0.41 under setting [2].
In the case of QGEEVAQRSTVFKTTIPEEEEEEE [LMNB1], the protein stability index by setting is: under setting [1], 5.63 ± 0.19; under setting [2], 5.64 ± 0.25.
